Test results from patent US20260009052, “CAS12 PROTEINS AND USES THEREOF” (GUANGZHOU REFORGENE MEDICINE CO., LTD., published 2026).
Where a chain is given by its changes, count along the chain named.

Tests used:
[1] = target: T1, C12-279 Mut-02 (synthetic construct, Q186R,D352R); experiment: cell_activity; PAM TTG; +/-0.25
T1 chain: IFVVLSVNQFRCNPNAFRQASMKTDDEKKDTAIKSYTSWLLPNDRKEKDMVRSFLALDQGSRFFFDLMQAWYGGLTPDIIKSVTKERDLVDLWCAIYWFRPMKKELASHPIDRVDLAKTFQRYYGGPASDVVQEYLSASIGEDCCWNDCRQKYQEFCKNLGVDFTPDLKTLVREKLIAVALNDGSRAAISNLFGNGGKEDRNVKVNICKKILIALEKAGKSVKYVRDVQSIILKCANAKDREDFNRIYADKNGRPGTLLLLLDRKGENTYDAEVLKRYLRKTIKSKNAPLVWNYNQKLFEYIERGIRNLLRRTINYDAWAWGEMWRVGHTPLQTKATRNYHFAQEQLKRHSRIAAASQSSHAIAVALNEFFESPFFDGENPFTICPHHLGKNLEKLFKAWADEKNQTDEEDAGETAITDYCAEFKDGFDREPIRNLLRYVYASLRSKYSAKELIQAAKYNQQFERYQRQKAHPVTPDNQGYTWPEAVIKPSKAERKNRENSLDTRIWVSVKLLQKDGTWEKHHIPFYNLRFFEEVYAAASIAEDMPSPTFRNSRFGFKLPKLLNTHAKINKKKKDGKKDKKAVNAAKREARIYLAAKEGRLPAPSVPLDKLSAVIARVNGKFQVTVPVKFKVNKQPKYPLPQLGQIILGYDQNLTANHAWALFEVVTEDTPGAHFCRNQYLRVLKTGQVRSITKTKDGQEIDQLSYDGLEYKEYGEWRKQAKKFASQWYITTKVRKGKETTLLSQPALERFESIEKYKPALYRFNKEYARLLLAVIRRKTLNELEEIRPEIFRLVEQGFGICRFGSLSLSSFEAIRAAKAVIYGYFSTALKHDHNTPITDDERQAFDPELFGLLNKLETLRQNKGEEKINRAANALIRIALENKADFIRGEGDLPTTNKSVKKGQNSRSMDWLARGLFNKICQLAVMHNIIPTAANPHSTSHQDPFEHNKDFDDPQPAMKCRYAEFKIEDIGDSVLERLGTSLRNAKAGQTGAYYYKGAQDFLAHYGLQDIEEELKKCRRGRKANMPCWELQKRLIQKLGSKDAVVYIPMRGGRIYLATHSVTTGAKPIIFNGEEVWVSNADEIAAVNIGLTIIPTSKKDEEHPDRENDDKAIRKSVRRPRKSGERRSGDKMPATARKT
Method: (§1) Transfection: transfection was performed 12-14 h after plating. 1.5 μL PEI (Yeasen Biotechnology, 40815ES03, Polyethylenimine Linear (PEI) MW25000) and 500 ng mutation clone plasmid were added to 100 μL Opti-MEM per well of the 24-well plate, mixed, and added to the NAAN cell line for cell transfection after placing at room temperature for 20 min. After overnight transfection, a fresh culture medium was replaced, and the culture was continued for 72 h, followed by flow cytometry. Editing efficiencies of different mutant clones were characterized by the proportion of GFP-positive cells.
(§2) Editing efficiency of some selected mutants was tested in Reporter3 cell line using the same manner as described for the NAAN reporter system, except that the cell line was changed from NAAN cell line to Reporter3 cell line.

[2] = target: T2, C12-279 D352R/Q186R/H350R (synthetic construct, Q186R,H350R,D352R); experiment: cell_activity; PAM TTG
T2 chain: T1 chain with H350R
Method: as §1, §2

B1: C12-279 Reporter3 sgRNA ; Reporter3 target (ssRNA ; dsDNA)
RNA: GUAAUGCGUCUCCCAUUGACGCCUCACCUCGCGACGCAAUGAUG
DNA 1: CTCACCTCGCGACGCAATGATG
DNA 2: CATCATTGCGTCGCGAGGTGAG
For B1, the binding signal [1] was 1.39 fold of C12-279 and the binding signal [2] was 2.11 fold of C12-279.
